In publication PMC6994067:

Experiments:
Experiment in all cases: NMR
Conditions in all cases: 25 °C, not stated (10 mM citrate-phosphate buffer; no added salt mentioned), folded, free protein, 1 mM
Asp14 = Asp14 (UniProt position 35, QKLIEDVNASF)
Asp33 = Asp33 (UniProt position 54, NVPPADKYKTF)
Asp52 = Asp52 (UniProt position 73, KRNLADAVSKA)
Asp65 = Asp65 (UniProt position 86, LVPKLDEVYNA)
Asp76 = Asp76 (UniProt position 97, AYNAADHAAPE)
Asp82 = Asp82 (UniProt position 103, HAAPEDKYEAF)
Glu103 = Glu103 (UniProt position 124, IAGTPEVHAVK)
Glu13 = Glu13 (UniProt position 34, EQKLIEDVNAS)
Glu39 = Glu39 (UniProt position 60, KYKTFEAAFTV)
Glu66 = Glu66 (UniProt position 87, VPKLDEVYNAA)
Glu7 = Glu7 (UniProt position 28, GKATTEEQKLI)
Glu8 = Glu8 (UniProt position 29, KATTEEQKLIE)
Glu81 = Glu81 (UniProt position 102, DHAAPEDKYEA)
Glu85 = Glu85 (UniProt position 106, PEDKYEAFVLH)
Glu93 = Glu93 (UniProt position 114, VLHFSEALRII)
His105 = His105 (UniProt position 126, GTPEVHAVKPG)
His77 = His77 (UniProt position 98, YNAADHAAPED)
His90 = His90 (UniProt position 111, EAFVLHFSEAL)

Substance: Pollen allergen Phl p 6 (Phleum pratense (timothy grass))
- pKa (Asp14): 3.50
- pKa (Asp33): 3.38
- pKa (Asp52): 2.4
- pKa (Asp65): 4.80
- pKa (Asp76): 3.50
- pKa (Asp82): 3.06
- pKa (Glu103): 3.65
- pKa (Glu13): 3.80
- pKa (Glu39): 4.84
- pKa (Glu66): 4.06
- pKa (Glu7): 4.25
- pKa (Glu8): 3.19
- pKa (Glu81): 3.52
- pKa (Glu85): 4.59
- pKa (Glu93): 4.21
- pKa (His105): 6.5
- pKa (His77): 7.4
- pKa (His90): 7.3
